From doi:10.1101/2025.04.23.650119

Molecular target: α-conotoxin ImII (Conus imperialis)
Test: cryo-EM structure

α-conotoxin ImII (peptide)
stoichiometry N: 2
